Experimental data published in paper PMC6628001, “The Biochemical Activities of the Saccharomyces cerevisiae Pif1 Helicase Are Regulated by Its N-Terminal Domain”.

B1: Tel15 (ssDNA)
DNA: TGTGGTGTGTGTGGG
B2: Tel30 (ssDNA)
DNA: CGCCATGCTGATCCGTGTGGTGTGTGTGGG
B3: RNA-DNA hybrid fork (MB1572/MB1571) (DNA:RNA)
DNA: GAACGCTATGTGAGTGACACTGGGTCACCACACCCACACCACACC
RNA: GGUGUGGUGUGGGUGUGGUGUGGGUCACAGUGAGUGUAUCGCAAG
modifications: MB1571 is all RNA; MB1572 is DNA

Columns and labels:
[1] = target: T1, Pif1 (full-length recombinant) (Saccharomyces cerevisiae, UniProt P07271 1-859); assay: EMSA; 7.5 mM Mg2+; 25 mM HEPES pH 8.0, 5% glycerol, 50 mM NaOAc, 150 μM NaCl (so in the source), 7.5 mM MgCl2, 0.01% Tween-20; 0.2 nM DNA; 30 °C 30 min; 4 mM ATP when present (not stated per row); details: protein: recombinant, tags: SUMO tag in expression construct (pSUMO-Pif1)
T1 sequence: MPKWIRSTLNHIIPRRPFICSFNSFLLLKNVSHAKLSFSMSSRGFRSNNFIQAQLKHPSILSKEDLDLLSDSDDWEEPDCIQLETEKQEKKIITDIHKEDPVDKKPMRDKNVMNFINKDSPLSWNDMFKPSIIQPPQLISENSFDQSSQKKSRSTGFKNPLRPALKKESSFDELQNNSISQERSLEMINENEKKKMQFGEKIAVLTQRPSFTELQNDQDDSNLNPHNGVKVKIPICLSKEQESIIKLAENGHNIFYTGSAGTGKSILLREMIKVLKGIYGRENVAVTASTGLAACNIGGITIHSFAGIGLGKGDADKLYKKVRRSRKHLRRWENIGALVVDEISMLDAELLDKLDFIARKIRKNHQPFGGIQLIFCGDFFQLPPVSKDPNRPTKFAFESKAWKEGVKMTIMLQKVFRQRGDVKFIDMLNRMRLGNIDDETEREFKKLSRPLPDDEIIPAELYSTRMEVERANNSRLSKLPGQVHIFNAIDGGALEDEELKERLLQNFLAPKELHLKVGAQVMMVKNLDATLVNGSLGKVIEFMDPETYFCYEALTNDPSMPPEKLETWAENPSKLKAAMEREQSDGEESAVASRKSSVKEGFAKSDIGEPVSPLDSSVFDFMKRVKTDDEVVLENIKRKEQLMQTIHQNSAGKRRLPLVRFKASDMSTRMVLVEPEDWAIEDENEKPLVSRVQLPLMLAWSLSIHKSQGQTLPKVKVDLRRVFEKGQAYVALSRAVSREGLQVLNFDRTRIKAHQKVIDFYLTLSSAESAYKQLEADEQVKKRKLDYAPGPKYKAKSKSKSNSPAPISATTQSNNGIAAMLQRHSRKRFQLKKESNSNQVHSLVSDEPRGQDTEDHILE

Pif1ΔN = target: T2, Pif1ΔN (Saccharomyces cerevisiae, UniProt P07271 234-859, del1-233); assay: as above; details: protein: recombinant, tags: SUMO tag in expression construct (pSUMO-Pif1ΔN)
T2 sequence: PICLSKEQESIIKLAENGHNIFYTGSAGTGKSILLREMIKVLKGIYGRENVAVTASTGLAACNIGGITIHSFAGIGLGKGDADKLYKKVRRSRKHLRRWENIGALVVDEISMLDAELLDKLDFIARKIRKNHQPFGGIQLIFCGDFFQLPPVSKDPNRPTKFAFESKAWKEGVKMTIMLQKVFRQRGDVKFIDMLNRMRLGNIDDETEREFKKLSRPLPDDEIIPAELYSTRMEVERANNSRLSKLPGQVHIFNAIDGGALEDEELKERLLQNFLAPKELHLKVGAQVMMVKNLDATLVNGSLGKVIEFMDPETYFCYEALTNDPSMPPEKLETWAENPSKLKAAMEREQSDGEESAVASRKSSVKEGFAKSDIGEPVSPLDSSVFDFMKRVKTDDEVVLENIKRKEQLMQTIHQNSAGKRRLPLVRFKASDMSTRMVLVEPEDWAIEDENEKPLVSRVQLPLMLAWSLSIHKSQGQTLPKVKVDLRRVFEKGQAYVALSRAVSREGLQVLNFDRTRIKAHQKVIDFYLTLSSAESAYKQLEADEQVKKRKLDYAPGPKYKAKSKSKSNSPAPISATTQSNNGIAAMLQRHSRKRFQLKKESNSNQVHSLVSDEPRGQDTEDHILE

[2] = label: 32P on helicase loading strand (5' end, T4 PNK; MB1572 implied), fork 1:26-45 2:1-20, unpaired 5' DNA arm 25 nt and 3' RNA arm 25 nt

Binder	Kd ([1]; label: 32P (5' end, T4 PNK)) [pM]	Kd (Pif1ΔN; label: 32P (5' end, T4 PNK)) [pM]	Kd [1, 2] [pM]	Kd (Pif1ΔN; [2]) [pM]
B1	112000 ± 12700	390 ± 58	–	–
B2	–	410 ± 31	–	–
B3	–	–	670 ± 85	135 ± 13
